# In PMC10946055:
# B1: NER junction mimic hairpin, 8 bp with 4 nt overhang (structured_DNA)
# DNA: TTTTGCGGCCGCTTTTGCGGCCGC
# How the values were obtained:
# Assay in all cases: MST
# XPA DBD F112C = XPA DBD F112C (Homo sapiens, UniProt P23025 98-239, F112C)
# XPA DBD M113I = XPA DBD M113I (Homo sapiens, UniProt P23025 98-239, M113I)
# XPA DBD D114Y = XPA DBD D114Y (Homo sapiens, UniProt P23025 98-239, D114Y)
# XPA DBD R130I = XPA DBD R130I (Homo sapiens, UniProt P23025 98-239, R130I)
# XPA DBD Y148D = XPA DBD Y148D (Homo sapiens, UniProt P23025 98-239, Y148D)
# XPA DBD Y148D, sequence (P23025 98-239 Y148D): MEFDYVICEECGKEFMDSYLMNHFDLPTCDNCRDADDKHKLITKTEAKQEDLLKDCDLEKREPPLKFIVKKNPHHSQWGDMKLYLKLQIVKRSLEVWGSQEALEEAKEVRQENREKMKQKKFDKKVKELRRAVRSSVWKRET
# XPA DBD WT = XPA DBD WT (Homo sapiens, UniProt P23025 98-239)
# XPA DBD WT, sequence (P23025 98-239): as the sequence (P23025 98-239 Y148D) above, with D51Y counted along it
# XPA DBD D114Y, sequence (P23025 98-239 D114Y): as the sequence (P23025 98-239 Y148D) above, with D17Y, D51Y counted along it
# XPA DBD M113I, sequence (P23025 98-239 M113I): as the sequence (P23025 98-239 Y148D) above, with M16I, D51Y counted along it
# XPA DBD F112C, sequence (P23025 98-239 F112C): as the sequence (P23025 98-239 Y148D) above, with F15C, D51Y counted along it
# XPA DBD R130I, sequence (P23025 98-239 R130I): as the sequence (P23025 98-239 Y148D) above, with R33I, D51Y counted along it
binder,measurement,setting,value
B1,Kd,XPA DBD F112C,9.2 ± 2.2 µM
same,Kd,XPA DBD M113I,12 ± 1.9 µM
same,Kd,XPA DBD D114Y,8.8 ± 1.7 µM
same,Kd,XPA DBD R130I,38 ± 22 µM
same,binding result,XPA DBD Y148D,no binding
same,Kd,XPA DBD WT,7.7 ± 3.7 µM
